The values below are quoted from earlier work in US20230313258A1, “CROSS-LINIKING METHODS” (The University of Bath, priority 2020, published 2023).

The data set deals with dimeric AP-1 transcription factor (Homo sapiens, UniProt P05412). The note with it: previously identified (Mason et al. 2006).
Chain of dimeric AP-1 transcription factor (P05412 whole entry): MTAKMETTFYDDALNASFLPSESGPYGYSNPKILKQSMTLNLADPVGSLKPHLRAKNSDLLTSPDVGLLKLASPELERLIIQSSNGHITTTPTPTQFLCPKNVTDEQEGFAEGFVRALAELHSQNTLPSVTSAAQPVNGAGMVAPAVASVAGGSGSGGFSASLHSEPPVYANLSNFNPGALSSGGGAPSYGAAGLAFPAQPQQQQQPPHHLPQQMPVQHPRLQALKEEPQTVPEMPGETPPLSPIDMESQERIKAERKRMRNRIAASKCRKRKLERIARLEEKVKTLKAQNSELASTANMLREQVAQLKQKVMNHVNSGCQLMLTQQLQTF

As to “FosW: parent peptide, SEQ ID NO: 1, ASLDELQAEIEQLEERNYALRKEIEDLQKQLEKLGAP; previously identified inhibitor of AP-1”, the “ability to dissociate AP-1 from its DNA binding site” value is “able to dissociate the dimeric AP-1 transcription factor from its DNA binding site”.
